Reference: US20070275900A1

Target: purified CD26 (dipeptidyl-peptidase IV, EC 3.4.14.5) (human) (UniProt P27487)
Assay: cell-based or functional assay

Chain of purified CD26 (dipeptidyl-peptidase IV, EC 3.4.14.5) (human) (P27487 whole entry, form in doubt): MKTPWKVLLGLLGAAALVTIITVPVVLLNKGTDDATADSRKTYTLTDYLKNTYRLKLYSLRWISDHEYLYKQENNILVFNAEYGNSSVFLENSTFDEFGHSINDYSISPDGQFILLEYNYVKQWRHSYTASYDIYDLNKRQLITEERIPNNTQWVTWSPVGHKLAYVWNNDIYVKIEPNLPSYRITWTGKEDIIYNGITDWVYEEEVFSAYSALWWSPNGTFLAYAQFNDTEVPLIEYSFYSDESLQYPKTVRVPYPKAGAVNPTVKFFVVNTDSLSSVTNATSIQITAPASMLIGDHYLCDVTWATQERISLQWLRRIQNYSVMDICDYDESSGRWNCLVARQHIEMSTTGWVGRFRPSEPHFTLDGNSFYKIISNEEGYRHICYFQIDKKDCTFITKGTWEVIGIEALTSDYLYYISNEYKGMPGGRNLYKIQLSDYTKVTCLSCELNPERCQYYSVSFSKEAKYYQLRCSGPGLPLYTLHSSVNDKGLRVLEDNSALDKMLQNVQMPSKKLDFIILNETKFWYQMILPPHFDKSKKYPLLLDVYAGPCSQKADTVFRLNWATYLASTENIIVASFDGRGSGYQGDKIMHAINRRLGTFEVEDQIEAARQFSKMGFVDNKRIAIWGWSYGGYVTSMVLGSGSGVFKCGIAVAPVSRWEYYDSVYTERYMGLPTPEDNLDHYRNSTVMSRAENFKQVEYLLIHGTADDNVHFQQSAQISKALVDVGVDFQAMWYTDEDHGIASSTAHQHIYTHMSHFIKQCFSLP

## Diprotin A (peptide)
  inhibition of conversion of 50 µM CAM-405 to CAM-212 by purified CD26, 100 µM diprotin A: > 50%
